Assay results taken from a protein production outcome set (Wang et al. 2014).

Assay: label from the status in PepcDB records

Sequence | protein production
MARLIIPCRSSSLARVNLLGLLSRAPVPVRSSCLRSSANRLTQHRPFLTSEAICLRKNRFLPHSVDTHKQNSRRLICSVATESVPDKAEDSKMDAPKEIFLKNYTKPDYYFETVDLSFSLGEEKTIVSSKIKVSPRVKGSSAALVLDGHDLKLLSVKVEGKLLKEGDYQLDSRHLTLPSLPAEESFVLEIDTEIYPHKNTSLEGLYKSSGNFCTQCEAEGFRKITFYQDRPDIMAKYTCRVEGDKTLYPVLLSNGNLISQGDIEGGRHYALWEDPFKKPCYLFALVAGQLVSRDDTFTTRSGRQVSLKIWTPAEDLPKTAHAMYSLKAAMKWDEDVFGLEYDLDLFNIVAVPDFNMGAMENKSLNIFNSKLVLASPETATDADYAAILGVIGHEYFHNWTGNRVTCRDWFQLSLKEGLTVFRDQEFSSDMGSRTVKRIADVSKLRIYQFPQDAGPMAHPVRPHSYIKVYEKVWLFTNSVLLYAGAEVVRMYKTLLGTQGFRKGIDLYFERHDEQAVTCEDFFAAMRDANNADFANFLQWYSQAGTPVVKVVSSYNADARTFSLKFSQEIPPTPGQPTKEPTFIPVVVGLLDSSGKDITLSSVHHDGTVQTISGSSTILRVTKKEEEFVFSDIPERPVPSLFRGFSAPVRVETDLSNDDLFFLLAHDSDEFNRWEAGQVLARKLMLNLVSDFQQNKPLALNPKFVQGLGSVLSDSSLDKEFIAKAITLPGEGEIMDMMAVADPDAVHAVRKFVRKQLASELKEELLKIVENNRSTEAYVFDHSNMARRALKNTALAYLASLEDPAYMELALNEYKMATNLTDQFAALAALSQNPGKTRDDILADFYNKWQDDYLVVNKWFLLQSTSDIPGNVENVKKLLDHPAFDLRNPNKVYSLIGGFCGSPVNFHAKDGSGYKFLGDIVVQLDKLNPQVKTPKLTCVFAVTYIM | failed
MARLIVNALVSVPLAEIEIGFVRSGGAGGQNVNKLATAAHLRFDIAASSLPETCKTRLLDHRDRRMTAEGIIVIKAQRFGTQEKNREDALARLRGLILQALAQRRPRKPTRPTLAAKKKRLDEKTRHGEIKRLRRRIGDLEHHHHHH | failed
MARMAVTLTHVMAMHAQILKFIVTALFVVPLFLAPAEAQTSETDLLAQLQTAPESEANRLERELALIWDQSGSAAMDLLLKRGREALEDEDNARAVEHLSALTDHAPEFAEGWHARATALYRAGLYGPALDALHQALLLNPNNFNAIFGLGVMMREFGDLDRAARAFDRVLELHPHHKRAKAAKEQMAVQGLGQTL | failed
MARQLDEQIAGRFPVGQRLRVLDVGMGQGTQALRLARAGHQVTGVEQDATMIAVARETLAAEPEGIRSRMRLVQSDGRDTGVHFLPGSFDVVLCHGVLMYVEDPDALLAGLARMLAPGGLLSLLVRNADALAMRPGLAGDWASALTSFDTTAYTNRLGLDVRADRLDALTSTLAGIGAPLHAWYGVRVFTDTAADGAELPADVETLLAAEERAGRTDPYRQVAALLHLCGVRGGGAP | failed
MARQTYGTTPWGAWFLDMLKAYDDSGRLSRGKTYANTGKVNSLVVNGQTAGAKVKGNYSPWYHVYFKFPPLSKTNKTAIRSILEKHPIELAGLRAGIMSPALIEALKKKKVRLIPARWNLIERDCTCPDSGDPCKHMAAVLFLLAKEIDHDPRLLFKLAGFDIDSINVPETEVFEKGGTQKLGLLQEQPVPLSLRKNETLNKAADLSSDSSVSETAHNSCELQSPLKFSLGESYLPLITNILPPEPNFSSSDFIIKLTEFYHKAVLNYGLNFYGQEKQSEKQEEKSVNPFLFARVKVNIDNIRKQKRAFPLEPKSPLTVNIKLGETHEINQTLLQAQNFYKTRNSLNEMSPSVKILFSLFALAGKLIQSSAFIPAVFTENKKLFIFWKSLSASSEIKADIFKFAASLTKDFFLPVGKWGRLYCAELLLTALLTEYAASLKFFPNKSYTKDKEIDKLFFLNEEIDISVPGKRNLDTVIYSWLSVLNYSNCGYEYRLTLEALKDDEFFLLSALVRKAKEKRIEAGDDSFALEAEAPFAELNTAAKRSKNPDDILRFPATLAAYLPALSILAIKKNVMLSREETGLFLQKSAKLLQRFGIDIVLPKSLKNILTPKPVISVKSVKGAGNIVSFLNIDDVLSYDRALMLGDTLIDIDEFKKLFLNKSGLVKFNDQFLLLDPEEVAKMLKALEKPADTKEVLQAVLSGNAVCSKPASEIIKNIFRQEEVPVPQNLNAELRPYQKQGYRWLYANIKSGFGCLLADDMGLGKTVQIISLMLSFKNSKEAESPFLVIAPASLLSNWEHEIAKFAPSLKTAVYHGAGRKFTTEADVIISTYQTMQKDIEKLKDKKVFCIILDEAQAIKNSGTKKAHAVKAIQARGRVALTGTPVENNLEDMRSIFDFFLPGYLGTADEFRKKWRIPIELHNSETEADDLKKITSPFLLRRLKTDPKVISDLPDKIITNQYCNLTPEQLAIYENLVETELHKVMGAETKIERQAYVLKLLTALKQVCNHPRAYDKETPIEMKYSGKAAVLIELLNEIISSGEKAIIFSQYVGTLDILKNIIQKELGTEPLLLHGQMPASKRKKAVEVFQTDSAYRIFLISLKAGGTGLNLTAANRVIHFDLWYNPAVEDQATDRAFRIGQTKNVFVHRLICSGTFEEKIDEMIQKKREISGMSISAGETWISKLSNEELAGLFKS | failed
MASEAVNVWSRTSLILIMLSAAILVVAVGAVMNSGLVESLQVPLWEKWVILVFLFALIIGIIGPLSGVGGGVIFVGLGMAILPFNVDFIRGAGLVAALSTSLNSAPYFTKKGLANLRIVAPLVSVSTIFSVFGGVIGLWISNSFPEGSYYVKMSLGVVLLVLLLILSRSKNVEYPPPREKKDRLSEMIDLTGGWYEPTLNRIVTYEASNLPLAMLAFSGVGFLAGMFGLGAGWANVPILNLVMGLPLKAAVASSMLILAINDSASLWVYLANGAVLPIVVVPVVLGISIGSRIGSRLAAKTKPKVIKRLVIALIALSGVVNIIQGLSGIGLLNL | failed
MASEEGQVIACHTVETWNEQLQKANESKTLVVVDFTASWCGPCRFIAPFFADLAKKLPNVLFLKVDTDELKSVASDWAIQAMPTFMFLKEGKILDKVVGAKKDELQSTIAKHLA | failed
MASFDGQGFMMVDNSWVQTKAIDVESTTDISPYLSKILEDSVWNGNRSIVFDVYWDVKSVSTKSEWRLCSVKFSTKNFCLFLRLPNPFCDNLKDLYRFFASKFVTFVGVQIQEDLALLKENHGIVIRSSLEIGKLAAKARGTPIVEFLGTRELAHKILWYDMSRLDSIQSKWDEASSNDRLEAAAIEGWLIFNVYDQLQQ | failed
MASIEQVAELISSLEQATLMAQQIGTTVGQNQLLQISSLRIAHQRLSAFLASIPTAEAEKSFSSVEPMQLGEEEKGEAEPAEEERYSAIEKVEEKMRECFIRNKRLKRPLSPSSAVVETSATEERSGRDYGFDSDPHATKLRALDLIYQFHA | failed
MASISATLYELCEAVDHPVPTRDRDVEAVFAEIEFDAIEFCPIEFVILPIGDWLDIFGDKIVLSEPFESAVDCRLRDPGAVAELCRRARLLFRLDENRARTLVTEQVCECFRISHVGHCKRAISWFVNIGCAVLGFLSGFSQRSHKKLPSISALTFRVRMSNRQTRTPTSVLLPTVSWTAACDDVAAQLGPEDELLIIHDSKDDPVVDRKPLSENVQFIPAGDPVGCSGKANAIAAGMEAANHDRLVWTDDDFHHPPDWLDRLHKDYAEYGPTTELPAFVGQDPLAVLLEPVYVLGGTLGTYMGDHAWGGAVIFDRSALDEERFLSELRQTISDDGLLGEHISVTSVQRVRRVPMGGSLRQTLERHIRFNQIFSTHDPTVAKLSFGVLVAVLIGCVFFPLLAVVLTVLTAGVSASFGVRRASLLLTVPALVAAVPLGLYAFARDTFVWGGRRYRWHSKFDVEVLNE | failed
MASKITQPDKYSGFLNNYSDLKETTSATGKPVLRWVDPSFDQSKYDSIVWNPITYYPVPKPSTQVGQKVLDKILNYTNTEMKEAIAQRKPLVTTAGPRSLIFRGAITGVDTSKEGLQFYEVVPVALVVAGTQMATGHRTMDTRLYFEGELIDAATNKPVIKVVRQGEGKDLNNESTPMAFENIKQVIDDMATDATMFDVN | failed
MASKSSFMATFNIVTLMLMVASSTVTARPLMKPSMGTSSPTTSLVYRLKLDEDTGYCWDSLMQLQHCSGELILFFLNGETYIGPGCCSAIRTIGRKCWPTMIGVLGFTAQEGDMLQGYCDGNDSDNNGEDHALASSTLPLSVNFKTTVVRSSASPSNP | failed
MASLDEKWEAVDNFKSVVVDRERDVVRVTKELYDLHSNREQLRGVTSSCNYRLTIPFAPHHFGSGKTTFARTYLELVQRFGETSLSTFASDPLKRTFLEKLKRASLLYADLKELKPTDPKERNLEWAVYYLLIKAACLQSGLPQPDPDECFKELKLRSDALVQKIRSILNIPSDQYLLVAFDEVGVLDESLDEFHFKRTHDGRVRPYNDFFGIISQLCKEPDLFFIVVGKSKGLSIKNYVSSVSKVILHFISLSPLDASSIVEFLEKSLLKTPTQVPVCNVLCSSSFSVNELADSLLECTGGVPGLLTRAVNMLLNYIIARKFVLNHLWNEY | failed
MASNGHTLRLVINRDKHDSVIRGLYLVTDHDDNLIPRVEAAIDGGARVVQYRNKNQDRESRLALGLELRELCRRRSIPFIVNDDLEMAVSLKADGLHLGQGDGDPREARRVLGPGKIIGVSTHTLSEALEAQAAGVDYIGLGAMFPSRSKEVEHVAGSELLAAIRSSISIPIVAIGGITRDNGASVIDAGADAVAVISAVLSHPDPALAATEIALLFNRRAPFPRGSVLTVAGSDSGGGAGIQADLKTVTLLGSYGSSVLTALTAQNTRGVSGIHGVPPAFVADQLDAVFSDIPVDVVKTGMLFSAETIVAIAAKLTEYRRRMVVVDPVMVAKGGANLIDRGAVSVLKERLFPLAYLVTPNIPEAERLTGANISDEESMREAARRLHRLGARNVLLKGGHLLAGDSVDILFDGAAFHRFVSPRILSKNTHGTGCTFASAIATYLAQGDPLREAIARAKRYITAAIRLAQPLGRGHGPVNHILAAEDVRDR | failed
MASNSRSSISPWTFSQNKMFERALAVYDKDTPDRWHNVAKAVGGKTVEEVKRHYDILVEDLINIETGRVPLPNYKTFESNSRSINDFDTRYITKYLYMMLSIYFDNHSSDFEKFSQKVLVSYISLV | failed
MASPATFQFSRTKLNLQINLVERKSPSKLSFPLLFRDQAKSTPIRFPVIRASSSSSASNHKPSLLKTTFISLTAAAALFSASFYFVNKRAAMTPVAVVETTLEKHLETQSNDVNALSLLTEIKFKSDKHEQAIVFLDRLIEIEPYERKWPAMKARILSYHGKSESAIEAFEEILEKDPIRVDAYHYLVMEYYNSKPKLTEIEKRINKVIRRCKKEKKTKEILGFRMLIAQIRFIEGKSVEAIRICEELVKEDPNDFTIYLFQGVVYTLMNKGEEAAKQFEHVARVIPRNHPSRETAARTTNSNEWRVIVAYDNVYCYLSTFARLSMASLFNKFG | failed
MASQVTAGSSGPVCFLTVGLRLPSARGQPVVSNFNQPRPPQRQRWVDSLLGVSLVALVVAAALPLLLPLVRLPGGSSARDRELAAAQATAFQTVLQRDPDNLSALRSLIGVYLQQQQLQAAIAPLQRLARLQPQQPAYRVLLAQTQAQLGDREAAAQTYRQILETAPTNLEALRGFTQLLLTQKQPTAAVDLLQKARQTDKITPADQVSIDLMLAQVYANQGQIDDAIALYDRSAQNNGRDFRPLLAKALLLKQQGDLQKATPIFQEAIAIAPAQYRDQIRQLSPASMPATPPTQPATKTPPTAPPPPPN | failed
